Numbering of substitutions follows the chain as printed. Names and notes keep the numbering of the source. Each block holds one molecule with its values, some of them ahead of it.
What was measured:
[1] = molecular target: feline FcRn complex (FcRn-α subunit and β-microglobulin), biotin labeled (feline); experiment: SPR, pH 6
[2] = molecular target: feline FcRn complex (FcRn-α subunit and β-microglobulin), biotin labeled (feline); experiment: SPR, pH 7.4
[3] = molecular target: feline FcRn complex (FcRn-α subunit and β-microglobulin) (feline); experiment: SPR (Biacore), FcRn on SA chip, pH 6

Molecule: feline IgG1a S434Y/S434F (as printed) (antibody)
- Kd [1]: 3.61 nM
- Kd [2]: 94.8 nM

Molecule: feline IgG1a T403R (antibody)
- Kd [1]: 6.22 nM
- Kd [2]: 840 nM

B1: feline IgG1a mutant ID No. 253: S428M, S434L (antibody, part only; not given: Variable domains, not shown: another chain or arm of the molecule)
constant: ASTTAPSVFPLAPSCGTTSGATVALACLVLGYFPEPVTVSWNSGALTSGVHTFPAVLQASGLYSLSSMVTVPSSRWLSDTFTCNVAHPPSNTKVDKTVRKTDHPPGPKPCDCPKCPPPEMLGGPSIFIFPPKPKDTLSISRTPEVTCLVVDLGPDDSDVQITWFVDNTQVYTAKTSPREEQFNSTYRVVSVLPILHQDWLKGKEFKCKVNSKSLPSPIERTISKAKGQPHEPQVYVLPPAQEELSRNKVSVTCLIKSFHPPDIAVEWEITGQPEPENNYRTTPPQLDSDGTYFVYSKLSVDRSHWQRGNTYTCSVMHEALHLHHTQKSLTQSPGK
- Kd [3]: 8 nM

B2: feline IgG1a A378I (antibody, part only; not given: Variable domains, not shown: another chain or arm of the molecule)
constant: B1 constant with A264I, M316S, L322S
- Kd [1]: 58.3 nM

B3: feline IgG1a A378P (antibody, part only; not given: Variable domains, not shown: another chain or arm of the molecule)
constant: B1 constant with A264P, M316S, L322S
- Kd [1]: 68.4 nM

B7: feline IgG1a mutant ID No. 312: Q311K, D312P, L314K (antibody, part only; not given: Variable domains, not shown: another chain or arm of the molecule)
constant: B1 constant with Q197K, D198P, L200K, M316S, L322S
- Kd [3]: 6.07 nM

B8: feline IgG1a A378E (antibody, part only; not given: Variable domains, not shown: another chain or arm of the molecule)
constant: B1 constant with A264E, M316S, L322S
- Kd [1]: 63.6 nM

B10: feline IgG1a mutant ID No. 264: D312P, L314K, S434Y (antibody, part only; not given: Variable domains, not shown: another chain or arm of the molecule)
constant: B1 constant with D198P, L200K, M316S, L322Y
- Kd [3]: 71.7 nM

B13: feline IgG1a mutant ID No. 298: S428Y, Q311W, D312P, L314K (antibody, part only; not given: Variable domains, not shown: another chain or arm of the molecule)
constant: B1 constant with Q197W, D198P, L200K, M316Y, L322S
- Kd [3]: 25.3 nM

B18: feline IgG1a A378C (antibody, part only; not given: Variable domains, not shown: another chain or arm of the molecule)
constant: B1 constant with A264C, M316S, L322S
- Kd [1]: 77.3 nM

B21: feline IgG1a mutant ID No. 330: S428Y, D312P, S434Y, Q311K, L314K (antibody, part only; not given: Variable domains, not shown: another chain or arm of the molecule; small tags and cut ends)
constant: B1 constant with Q197K, D198P, L200K, M316Y, L322Y
- Kd [3]: 0.00906 nM

B22: feline IgG1a mutant ID No. 313: Q311M, D312P, L314K (antibody, part only; not given: Variable domains, not shown: another chain or arm of the molecule)
constant: B1 constant with Q197M, D198P, L200K, M316S, L322S
- Kd [3]: 18.9 nM

B24: feline IgG1a mutant ID No. 275: S252R, S434R (antibody, part only; not given: Variable domains, not shown: another chain or arm of the molecule)
constant: B1 constant with S138R, M316S, L322R
- Kd [3]: 78.6 nM

B25: feline IgG1a mutant ID No. 304: D399M, D401R (antibody, part only; not given: variable domains and light chain, not shown: another chain or arm of the molecule; small tags and cut ends)
constant: B1 constant with D287M, D289R, M316S, L322S
- Kd [3]: 5.43 nM

B28: feline IgG1a A378F (antibody, part only; not given: Variable domains, not shown: another chain or arm of the molecule)
constant: B1 constant with A264F, M316S, L322S
- Kd [1]: 74.8 nM

B30: feline IgG1a A378D (antibody, part only; not given: Variable domains, not shown: another chain or arm of the molecule)
constant: B1 constant with A264D, M316S, L322S
- Kd [1]: 100 nM

B31: feline IgG1a mutant ID No. 306: D399M, T403R (antibody, part only; not given: Variable domains, not shown: another chain or arm of the molecule; small tags and cut ends)
constant: B1 constant with D287M, T291R, M316S, L322S
- Kd [3]: 12.8 nM

B32: feline IgG1a mutant ID No. 311: Q311H, D312P, L314K (antibody, part only; not given: Variable domains, not shown: another chain or arm of the molecule; small tags and cut ends)
constant: B1 constant with Q197H, D198P, L200K, M316S, L322S
- Kd [3]: 1.44 nM

The remaining lines, values ahead:

- Kd [3]: 24.5 nM
Molecule: feline IgG1a mutant ID No. 259: S428L (antibody)

- Kd [1]: 3.24 nM
- Kd [2]: 41.2 nM
Molecule: feline IgG1a S252H/S428M/D312P (ID No. 215) (antibody)

- Kd [3]: 25.4 nM
Molecule: feline IgG1a mutant ID No. 262: S428L (antibody)

- Kd [3]: 14 nM
Molecule: feline IgG1a mutant ID No. 263: S252Y, S254T, T256E (antibody)

- Kd [3]: 27 nM
B4: feline IgG1a mutant ID No. 286: S252Y, S428Y, D312P, L314K (antibody, part only; not given: Variable domains, not shown: another chain or arm of the molecule)
constant: B1 constant with S138Y, D198P, L200K, M316Y, L322S

- Kd [3]: 2.17 nM
B5: feline IgG1a mutant ID No. 302: A431K, S434P (antibody, part only; not given: Variable domains, not shown: another chain or arm of the molecule)
constant: B1 constant with M316S, A319K, L322P

- Kd [1]: 26.6 nM
B6: feline IgG1a A378M (antibody, part only; not given: Variable domains, not shown: another chain or arm of the molecule)
constant: B1 constant with A264M, M316S, L322S

- Kd [3]: 7.95 nM
B9: feline IgG1a mutant ID No. 265: Q311W, D312P, L314K, S434Y (antibody, part only; not given: Variable domains, not shown: another chain or arm of the molecule)
constant: B1 constant with Q197W, D198P, L200K, M316S, L322Y

- Kd [3]: 15.9 nM
B11: feline IgG1a mutant ID No. 307: D401R, T403R (antibody, part only; not given: Variable domains, not shown: another chain or arm of the molecule; small tags and cut ends)
constant: B1 constant with D289R, T291R, M316S, L322S

- Kd [3]: 11.4 nM
B12: feline IgG1a mutant ID No. 315: Q311Y, D312P, L314K (antibody, part only; not given: Variable domains, not shown: another chain or arm of the molecule)
constant: B1 constant with Q197Y, D198P, L200K, M316S, L322S

- Kd [3]: 22.7 nM
B14: feline IgG1a mutant ID No. 320: S428Y, D312P, S434P (antibody, part only; not given: Variable domains, not shown: another chain or arm of the molecule)
constant: B1 constant with D198P, M316Y, L322P

- Kd [3]: 7.27 nM
B15: feline IgG1a mutant ID No. 284: S252Y, Q311W, D312P, S434Y (antibody, part only; not given: Variable domains, not shown: another chain or arm of the molecule)
constant: B1 constant with S138Y, Q197W, D198P, M316S, L322Y

- Kd [1]: 104 nM
B16: feline IgG1a A378K (antibody, part only; not given: Variable domains, not shown: another chain or arm of the molecule)
constant: B1 constant with A264K, M316S, L322S

- Kd [1]: 34.7 nM
B17: feline IgG1a A378L (antibody, part only; not given: Variable domains, not shown: another chain or arm of the molecule)
constant: B1 constant with A264L, M316S, L322S

- Kd [3]: 9.6 nM
B19: feline IgG1a mutant ID No. 309: P247V, T250Q (antibody, part only; not given: Variable domains, not shown: another chain or arm of the molecule; small tags and cut ends)
constant: B1 constant with P133V, T136Q, M316S, L322S

- Kd [3]: 7.53 nM
B20: feline IgG1a mutant ID No. 255: S428M, S434P (antibody, part only; not given: Variable domains, not shown: another chain or arm of the molecule)
constant: B1 constant with L322P

- Kd [1]: 28.6 nM
B23: feline IgG1a A378N (antibody, part only; not given: variable domains and light chain, not shown: another chain or arm of the molecule)
constant: B1 constant with A264N, M316S, L322S

- Kd [3]: 0.00402 nM
B26: feline IgG1a mutant ID No. 322: S428Y, D312P, S434Y, D399M, D401R (antibody, part only; not given: variable domains and light chain, not shown: another chain or arm of the molecule)
constant: B1 constant with D198P, D287M, D289R, M316Y, L322Y

- Kd [1]: 88.3 nM
B27: feline IgG1a A378G (antibody, part only; not given: Variable domains, not shown: another chain or arm of the molecule)
constant: B1 constant with A264G, M316S, L322S

- Kd [1]: 49.3 nM
B29: feline IgG1a A378H (antibody, part only; not given: Variable domains, not shown: another chain or arm of the molecule)
constant: B1 constant with A264H, M316S, L322S

- Kd [3]: 2130 nM
B33: feline IgG1a mutant ID No. 314: Q311R, D312P, L314K (antibody, part only; not given: Variable domains, not shown: another chain or arm of the molecule)
constant: B1 constant with Q197R, D198P, L200K, M316S, L322S

Reference: patent publication US20240400708A1
